Here are results for 2 substances from US20190177410A1.

Test [1] addresses full-length human APLNR (hAPLNR) (human) (UniProt P35414). The test can be described thus: FACS, secondary antibody alone (4 ug/mL) on HEK293/CRE-luc/hAPLNR cells. In general terms: Flow cytometry measures light scatter and fluorescence of single cells or particles in a stream.
The target is the same in test [2]. Nature of the test: FACS, secondary antibody alone on HEK293/CRE-luc/hAPLNR cells.
Test [3] addresses T1, full length cynomolgus APLNR (MfAPLNR) (cynomolgus (Macaca fascicularis)).
T1 sequence: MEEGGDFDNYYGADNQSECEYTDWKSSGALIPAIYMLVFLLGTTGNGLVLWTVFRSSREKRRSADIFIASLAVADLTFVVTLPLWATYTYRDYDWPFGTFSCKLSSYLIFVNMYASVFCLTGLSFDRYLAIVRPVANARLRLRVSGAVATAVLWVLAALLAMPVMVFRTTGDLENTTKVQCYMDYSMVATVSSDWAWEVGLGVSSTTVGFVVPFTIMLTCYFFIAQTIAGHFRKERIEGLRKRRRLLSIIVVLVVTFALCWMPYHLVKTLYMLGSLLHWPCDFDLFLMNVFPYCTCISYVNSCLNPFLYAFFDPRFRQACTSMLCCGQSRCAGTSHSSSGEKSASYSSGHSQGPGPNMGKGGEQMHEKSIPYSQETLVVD
The test can be described thus: FACS, secondary antibody alone (4 ug/mL) on HEK293/CRE-luc/MfAPLNR cells.

The target is the same in test [4]. The test can be described thus: FACS, secondary antibody alone on HEK293/CRE-luc/MfAPLNR cells.

As to “anti-human IgG antibody conjugated with Alexa 488 (secondary antibody alone)”, the Binding Ratio of Geom. Mean to Unstained Cells in test [1], in test [2], in test [3] and in test [4] was 2 fold throughout.

With “anti-mouse IgG antibody conjugated with Alexa 647 (secondary antibody alone)”, the results for the Binding Ratio of Geom. Mean to Unstained Cells in test [1] and in test [3] were 4 fold and 3 fold, respectively.
